{"source": "the domain aggregation screens of Martell et al. (2025)"}
{"assay": "soluble fraction after stress (log2 fold change); higher = more stays soluble; pooled small domains, quantitative proteomics", "settings": "stress: 75 degC"}
{"sequence": "HMNLDMVINKIGIVTEDIKQDKIGEVKVLGKRWSAYSNTELKKDEKVKILSIDGVKLKVEKI", "soluble fraction (log2)": -0.135}
{"sequence": "HMNLGAHVYWRNHRAYGDFREYEDVGGGREALALPGSTWGTKDPRVAQALFAARLTEFQEARVGR", "soluble fraction (log2)": -0.989}
{"sequence": "HMNLGVIYSLKAEVRSEPNTFSTRLFEVHEGLKVSINQLENDWVEIELLDGKTGWISNDQIRLI", "soluble fraction (log2)": -2.61}
{"sequence": "HMNLIFFSENLSTFRKEKGWTQSELAEKLGVKANTISNYEKGISTPDYKIIAKLRELFEMPTDVLLYSNLS", "soluble fraction (log2)": -1.86}
{"sequence": "HMNLLDYDFFEKMSSKEQEEIVEKVYIDFLNKSTGTNSPFYLKLFEKGKKSYIVNWLNENNF", "soluble fraction (log2)": -1.77}
{"sequence": "HMNLLSPREKQSLTLYASGLTLREVASELKLSPNSVGKFISRGKFKLNKSGAIVNSKTSIYLELKKRNLI", "soluble fraction (log2)": -0.147}
{"sequence": "HMNLNESVELGQELLSQALAQLGIRGELSPSTIDKLLAESSAKSMEELYADIGIGKRMPALVARHIFGLMD", "soluble fraction (log2)": -0.627}
{"sequence": "HMNLQAYQSVLDKLNEEYGTTFRFPTEEELHEVGLTNTVDPRTATVSATEFEKYMRPIAERISQANL", "soluble fraction (log2)": -0.205}
{"sequence": "HMNLSAREWTSADGSRTFQGELTGFQDGKVKVRRSDGKSLVFAIELLSESDQQFIKTNQLVIAKKDED", "soluble fraction (log2)": 0.0766}
{"sequence": "HMNLYHALDQQGEVYLTIPPRQSGRGKVTLMIDGRVREMDAMTDGDALKTGSKVRVTEILDENALKVEAM", "soluble fraction (log2)": 0.215}
{"sequence": "HMNMAEETLDTAAKILKAAEEEFMEKGYGNAKMMSIAARAGVSHSMLHYYYRSKGKLFQMIFDEKA", "soluble fraction (log2)": -1.41}
{"sequence": "HMNMAEQGISLDSEAGKARFVSQALPLLKQLPDGVFKQRMLNQLADRVEVTADFIAQQLAQLKAA", "soluble fraction (log2)": -0.0979}
{"sequence": "HMNMAVELEDGTQIFVFSEDGEFAGKRAVIADEEGRPTEENAPAGTHTLRDGRSIVVGEGGVIESVVET", "soluble fraction (log2)": -0.0672}
{"sequence": "HMNMEYQKAINHIVQMVKDGQLIVGSKIPSERDLSESLGIGRNSTREAISILRGMGLVESRHGSGNYIAKD", "soluble fraction (log2)": -0.2}
{"sequence": "HMNMGEKIRSLIGQFGVTSEDLKNLSVANLLIRMNQEAGDSKTKGILASLLETVNKAGVGNLTPDALGIK", "soluble fraction (log2)": -0.164}
{"sequence": "HMNMLGEQVRNIRKSRGFTLKALAEQTGLSIGYISQIERNLTDPSLSTLRKISAALDVPTYLFMG", "soluble fraction (log2)": -2.13}
{"sequence": "HMNMLGSNIKYLRNRHKLSQQELSEKLGVPRSSLSDYERGHTQVGLDSLIKLADIFDVKIDDLLRSNLSHR", "soluble fraction (log2)": -0.439}
{"sequence": "HMNMPHEIDANFISSLGRLIDNHGKNYGDFQIFREMFLDYFPRFDELSSNNKEKINRRLYKFFETLFG", "soluble fraction (log2)": -2.09}
{"sequence": "HMNMVEESVKKSSQWAVFEPNTISTWVKIQAMIENYLYQKWKEGALAGAKPEHAFFVKVGLGETM", "soluble fraction (log2)": 0.258}
{"sequence": "HMNNEISINGNKIYFNKNISKVFIYDISGKLIKHKNNFNNNFIDLSEFNSAFYIIKALDINENYTTKKIFL", "soluble fraction (log2)": -1.69}
{"sequence": "HMNNFTPEHLEKDIEGSLFFRRLKETAREEPGSLTVAQKDFIQMWHDQADGVYTLRQVFVQTAFDHVRSL", "soluble fraction (log2)": 0.315}
{"sequence": "HMNNFTQSALDTIDGIGKRRKKLLLNHFGSVKLIENASIEDIKKIDGISDLVANKIYNFFNKN", "soluble fraction (log2)": -1.04}
{"sequence": "HMNNGAEIGAEIRSLRKARGLTLEDLAAKIGRSVGYISQVERGISPLTIPNLKAIAEVLGVGINWFFRGEA", "soluble fraction (log2)": -1.15}
{"sequence": "HMNNILNYTIAELMEILKIDDLETENVINSSNNLINKSINENNFPLAEFYEDVKNNLIEFIETFDS", "soluble fraction (log2)": -0.771}
{"sequence": "HMNNLELSEEEKSVLTIIEKEGLIELDKLKTKLELSNKKWDKTLKFLTKNKLAKVVKNDNGLFVEL", "soluble fraction (log2)": -0.158}
{"sequence": "HMNNLLEDIKARLMAQAEAGGHIDTETELAEHFGVTRYRIRKELDLLSQMGLLRRQPKNGIEVLTV", "soluble fraction (log2)": -0.171}
{"sequence": "HMNNLNDIIEIIRIYAKNYARNNPSWNHSELINRIRDKALGEAEDYNIRLSEEDLALITELSLRGL", "soluble fraction (log2)": -0.713}
{"sequence": "HMNNMVNTLLKLLAEQDVLRGIVRRFTPSSVFVFLQNEEVEVELPLQGRSLAPGQLVELTQEGASVALKRL", "soluble fraction (log2)": -0.936}
{"sequence": "HMNNPLLDKVYQLMKQNNITEEEIVRAVAMKGYFPDDMKLGDYPDDFIDGVLIGAWDQIKQFIINNISPFK", "soluble fraction (log2)": -0.281}
{"sequence": "HMNNSDIDITVGKNSISINNPNRTNIIIYSSNGMLIDSSKNASYKRNLPSGIYIVKSGSSTHKVIV", "soluble fraction (log2)": -0.905}
{"sequence": "HMNNTIKFFVSQDDDSTRLDVFLSKKIENLTRSNIKKFINLNNVKINKATINSPSKKVKLYDEIEIKFSS", "soluble fraction (log2)": -2.46}
{"sequence": "HMNNTIKFSVDSQNSGKRLDIFLTENIKNYTRSFLKKLIENRQVKLNNNFIISPSERVKFKDQININILQ", "soluble fraction (log2)": -1.8}
{"sequence": "HMNNVDIMGRMVYDDQHREVINFGKYKGVLVTEVLKKDPGYFSWIQQGDFPSDMKRIMMAIKLRM", "soluble fraction (log2)": -2.61}
{"sequence": "HMNNVDQLIEQYKTLPGGLLPLLHAIKHALGYIPESTVGSIAKGFNLSRAEVHGVISFYHDFNTQP", "soluble fraction (log2)": 0.07}
{"sequence": "HMNPAYTDSRMKTFLEELPVMKASLSQKHVTRFLVWQEYIGRHPDGYGKSQFFYHLKQNLVAAKG", "soluble fraction (log2)": -0.391}
{"sequence": "HMNPDTERIREFVAVSLKNRKVATSGEIQNMIVKQFKNFKLKSHGYSNMKSFLSSIDKIQLNSNGKYSLK", "soluble fraction (log2)": -1.89}
{"sequence": "HMNPEDDLLKAIIMKYFSNAQVQVDKNVIEYLLKRVDRDYQNLYNILEKINILSLQRKSKITTHLIRDIM", "soluble fraction (log2)": -0.414}
{"sequence": "HMNPFLELTEREMDVLRLIAIGRNNQEIASELVISEKTVKTHITNIFSKLHFKDRTQAAAYAWQSGIVR", "soluble fraction (log2)": -1.73}
{"sequence": "HMNPHGVAIIDVRKGKASTLRSLATSVRSLGEWDQLKIPIFNLESLTSLVLWHGLDAIVKEPESLQSNLIL", "soluble fraction (log2)": -0.513}
{"sequence": "HMNPHIQFWSLLRRQPDYNSAYKDELKAMFVWQWSGEKTESLNEFYKTDPYRYKSMLMDMRNRAL", "soluble fraction (log2)": -3.33}
{"sequence": "HMNPIDAHVGARVRLRRMLIGMSQEKLGELLGVTFQQIQKYEKGANRIGASRLYEVSRVLDVPVQYFFDDM", "soluble fraction (log2)": -3.66}
{"sequence": "HMNPLDGTSVHPESYEAAEKLLKKQGFSLEDISGGKLTGLSLTIKDYARLAKELEIGEITLRDIVKELEK", "soluble fraction (log2)": -0.132}
{"sequence": "HMNPLHYKAAHWVREGLFDDLKSFVELETRINSIFEEKDRGDVFEIFIEGYRSFSKWRALVLRLA", "soluble fraction (log2)": -0.365}
{"sequence": "HMNPNEVQIPDLVNKTEEEAEQILKDLKLKLVVKSEEYDENIEKGKIISQDPTYKENYKIKEHSEISVIIS", "soluble fraction (log2)": 0.586}
{"sequence": "HMNPNPFVNLSPRELEVLNLLFKGYGVLEISNELNIGQTTASTFKSRILKKTSTHSVVELIKLAEQYGFIP", "soluble fraction (log2)": -0.85}
{"sequence": "HMNPNPYIVLGVDKSMPFGEIKKVYQRKRREFHPDSLVAKGLPDELLQKAQDKFIAIQEAYKSIEKNQV", "soluble fraction (log2)": 0.44}
{"sequence": "HMNPNSIDEKLKLLSNREKEVAILVLKKLSYFEISEQLNITIRTVKAHTKNIYEKFNVSNRLAFLLLFN", "soluble fraction (log2)": -0.00667}
{"sequence": "HMNPSAFSEYSFELLQSALLKKKIDENLSNQTIARDAGVSEAFVQKVLTNNVKRPSVKNRVRMISYLGLD", "soluble fraction (log2)": -1.47}
{"sequence": "HMNPSFTMGTRIKEYIDAHYLEDLKLADIAEALHINLYYLSHTFKDLTGSSPMQYIIRRRIEE", "soluble fraction (log2)": -0.857}
{"sequence": "HMNPSPYLRRHLSGDWGDLDEDDRRSNDAALASGEARLLSSYQVDPDLKLWIITEWDRSVTTLLLPSE", "soluble fraction (log2)": -0.0994}
{"sequence": "HMNPTLPYGFAKRHGVILLEAGEVAVVGLREGADPAALIETRRALGRPLRVEPLDQATFDRRLSQVYA", "soluble fraction (log2)": -0.512}
{"sequence": "HMNPTSLTFRSNVKDGKVYVDGIFKGSSDLDFDLPKGRHSIRIEKDGYVPFAKTINLIKALVIDFNMEKA", "soluble fraction (log2)": -2.02}
{"sequence": "HMNPTTQIQYNLPKSEFVSIYIYDLIGNRVKSLINNYQDAGYKSVYWDAMNDLGQPVSAGMYIY", "soluble fraction (log2)": -0.0727}
{"sequence": "HMNQKKFIQADYEDRLFDHLAFEVKDMEKIISMMRREKFTITDEPFRLSPTGSLIAFVEDPDRTLIELIER", "soluble fraction (log2)": -0.41}
{"sequence": "HMNQNAMIGAHIRNLRLAKKLTLKQLSDESGLSVGFLSQLERGMSSIAIDTLARLAHILGADLSSFF", "soluble fraction (log2)": -2.65}
{"sequence": "HMNQRQLQIKQMLDVAQEVFLKQLKTVFPDVSEMTIRRDLILLEDMGYAVRTHGGAVSINRF", "soluble fraction (log2)": -2.42}
{"sequence": "HMNQRTATVTASQLNVRSGPSTAYSIVHVLRQGETVEVIGESDGWYQIRLKDGRVGWSSGQYLNLN", "soluble fraction (log2)": -0.142}
{"sequence": "HMNQSAVMAERMKQTKNRILQTAKEIFLEQGYKRTTIRQIVERSGITSGSIYNIFSSKEEIFSALVDDL", "soluble fraction (log2)": -3}
{"sequence": "HMNQSYQLWIKDDELGPTPRSVGVLNEHFEVDPAALTNYDAELLRRATFGISLEPRGGSPTGQP", "soluble fraction (log2)": -0.192}
{"sequence": "HMNQTPQISYSQFIADVRSGQIKDVNIDSDNRTIVGHKFSGEEFTTFSPGDNKLVDELLNYNVEIKTSP", "soluble fraction (log2)": 0.611}
{"sequence": "HMNREEFLSQLERLLYDIPAQEREEALEYYNGYFDDAGKEKEAEVIQELGSPGKVAAIIKADLSG", "soluble fraction (log2)": 0.12}
{"sequence": "HMNRETAISIYRILHILEEPYKEVFTLRTLGDLSYREIADIFGKQENWARVTYHRAKLKIREALVS", "soluble fraction (log2)": -2.23}
{"sequence": "HMNRIFQERVVPAELDTLRADKVAASLFSDFSRNELAHWIKMGDLSINGGVKKAKDKLFEGDVLILDVEIV", "soluble fraction (log2)": -0.944}
{"sequence": "HMNRKILVLLAGKEQITDNVSVMQSIHRYAFINTATINKAQHEILIEKEEIRQEALTLIHEFLK", "soluble fraction (log2)": -0.97}
{"sequence": "HMNRKLKAKATREKIYKSAEKLFSQNDYNKVSVDAIVEAAGVAKGSFYVHFASKDALIAMLINDH", "soluble fraction (log2)": -0.448}
{"sequence": "HMNRMKLLREQHNLSQTDLAKILNISRQSYNFYENEKRDPDTTMLIRIADFFNVSLDYLLGRTNN", "soluble fraction (log2)": -2.84}
{"sequence": "HMNRPYVELFSGLGQEEAQQIVQKLQEDEVDYKFSGDSTILVKEDVVDQTKATLVQEGYPKS", "soluble fraction (log2)": 0.153}
{"sequence": "HMNSEEINDVRKAVDELPTHLREILLLNYFQQMSYVQISDSLEIPLGTVKSRLHAAVAAFRNAWQSSQEE", "soluble fraction (log2)": -0.484}
{"sequence": "HMNSEELFLRRIAQELIDQHGKDLHRIIVVLPSNRSKVFLKKFLFEILGSAFLTPQLMLLPQFVKSIV", "soluble fraction (log2)": -0.425}
{"sequence": "HMNSFGWESFVGEKGVTDTDLRPSGWIVIKDKRLFALTEGTFIEKGVSVEILSVEGNRIVVREIS", "soluble fraction (log2)": -2.9}
